Residue numbers refer to the chain shown, from its start.
B1: IGF1R-3 VHH (VHH)
VHH: QVKLEESGGGLVQAGGSLRLSCVASEYPSNFYAMSWFRQAPGKEREFVAGVSRDGLTTLYADSVKGRFTMSRDNAKNTVDLQMNSVKAEDTAVYYCAIVITGVWNKVDVNSRSYHYWGQGTQVTVSS
notes: Llama VHH expressed in E. coli TG1 from pSJF2H and tested as monomer; also called anti-IGF1R VHH IGF1R-3; IGF1R VHH; not shown: C-terminal tag from expression vector pSJF2H (protein purified by IMAC)
B2: IGF1R-3_H4 (VHH)
VHH: B1 VHH with K3Q, E5V, A14P, V23A, A75S, D80Y, V86L, K87R, Q122L
notes: Humanized variant of IGF1R-3, monomeric VHH; not shown: C-terminal tag from expression vector pSJF2H (protein purified by IMAC)
B3: IGF1R-3_H2 (VHH)
VHH: QVQLVESGGGLVQPGGSLRLSCAASEYPSNFYAMSWVRQAPGKGLEWVAGVSRDGLTTLYADSVKGRFTMSRDNSKNTVYLQMNSLRAEDTAVYYCAIVITGVWNKVDVNSRSYHYWGQGTLVTVSS
notes: as for B2
B4: IGF1R-3_H1 (VHH)
VHH: B3 VHH with Q1E, A49S, M70I, V79L
notes: as for B2
B5: IGF1R-3_H5 (VHH)
VHH: B3 VHH with Q1E, V37F, G44E, L45R, W47F, A49S, M70I, V79L
notes: as for B2

target: T1, recombinant human Insulin Receptor (R&D systems) (human, UniProt P06213-2 28-944, limits assumed); assay: SPR, IGF1R-3 VHH (1 nM per text) injected over immobilised human Insulin Receptor surface (curve without asterisk)
T1 construct: extracellular domain; Immobilized on a CM5 chip at about 4000 RU; also called IR; recombinant extracellular portion of the human Insulin Receptor
T1 sequence (P06213 other isoform, or with tags, fused parts or gaps limits assumed): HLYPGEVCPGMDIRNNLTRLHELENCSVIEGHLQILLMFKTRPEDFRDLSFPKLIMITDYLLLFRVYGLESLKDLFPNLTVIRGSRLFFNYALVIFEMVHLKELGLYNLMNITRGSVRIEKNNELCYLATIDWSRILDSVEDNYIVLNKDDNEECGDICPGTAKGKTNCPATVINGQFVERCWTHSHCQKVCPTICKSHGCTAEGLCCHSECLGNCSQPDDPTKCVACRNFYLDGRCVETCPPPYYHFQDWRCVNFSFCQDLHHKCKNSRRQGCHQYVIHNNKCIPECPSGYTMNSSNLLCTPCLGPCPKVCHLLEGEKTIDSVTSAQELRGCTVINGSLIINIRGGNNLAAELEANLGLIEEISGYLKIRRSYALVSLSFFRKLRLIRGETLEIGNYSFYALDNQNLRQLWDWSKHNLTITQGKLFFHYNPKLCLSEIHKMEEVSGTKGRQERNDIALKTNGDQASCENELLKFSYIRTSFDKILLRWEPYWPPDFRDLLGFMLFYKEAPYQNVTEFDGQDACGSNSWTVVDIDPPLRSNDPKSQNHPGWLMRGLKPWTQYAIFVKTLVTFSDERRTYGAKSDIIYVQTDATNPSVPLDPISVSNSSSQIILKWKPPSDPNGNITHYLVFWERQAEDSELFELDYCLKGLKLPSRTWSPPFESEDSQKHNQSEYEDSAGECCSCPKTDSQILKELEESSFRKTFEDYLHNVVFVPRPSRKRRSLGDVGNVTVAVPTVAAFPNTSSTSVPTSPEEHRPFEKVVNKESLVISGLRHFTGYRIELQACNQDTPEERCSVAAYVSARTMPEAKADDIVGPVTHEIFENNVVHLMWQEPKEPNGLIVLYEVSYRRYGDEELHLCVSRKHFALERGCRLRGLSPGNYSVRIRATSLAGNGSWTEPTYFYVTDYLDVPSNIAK
Experimental: (§1) Approximately 3000 Resonance Units (RU) of recombinant human IGF1R were immobilized on a Sensor chip CM5. Immobilization was carried out at a concentration of 10 μg/ml in 10 mM acetate at pH4.0 using the amine coupling kit supplied by the manufacturer. The remaining binding sites were blocked with 1 M ethanolamine pH 8.5. An ethanolamine blocked surface was used as a reference surface. For the binding studies, analyses were carried out at 25° C. in 10 mM HEPES, pH7.4 containing 150 mM NaCl, 3 mM EDTA and 0.005% surfactant P20 (Polyoxyethylenesorbitan; GE Healthcare). […] Surfaces were regenerated with 10 mM glycine pH 2.0 with a contact time of 24 seconds. Data were analyzed with BIAevaluation 4.1 software (GE Healthcare).

B1: no binding (tested: 1 nM).

target: T2, recombinant extracellular portion of human IGF1R (IGF1R^933-His) (human, UniProt P08069 31-933); assay: SPR, Biacore 3000, human IGF1R immobilized on CM5, VHH as analyte, 1:1 model
T2 construct: It contains a furin cleavage site (RKRR) between the alpha and beta subunits, so the secreted protein may be two disulphide-linked chains; Immobilized by amine coupling on a CM5 chip; also called recombinant human IGF1R; human IGF1R fragment; not shown: His tag from vector pCDN4/myc-His
Experimental: as §1

Point of comparison: B4, Kd 47 nM. Against it:
- B2 — 34-fold lower, 1.4 nM
- B3 — 7.1-fold lower, 6.6 nM
- B1 — 36-fold lower, 1.3 nM
- B5 — 6.3-fold lower, 7.5 nM

Point of comparison: B4, koff 0.0023 s⁻¹. Against it:
- B2 — 4.2-fold lower, 0.00055 s⁻¹
- B3 — 3.2-fold lower, 0.00072 s⁻¹
- B1 — 18-fold lower, 0.00013 s⁻¹
- B5 — within 1.5-fold, 0.0025 s⁻¹
